From US20220185900A1 come the findings set out here.

The assay concerns the target human RET on cells (MCF7/SRE-Luc; HEK293/hGFRα3/hRET/SRE-Luc; HEK293/hGFRα1/hRET/SRE-Luc) (human), P07949. Put plainly: cell-based or functional assay.

B1: H4H7086N (antibody, human IgG4, V domains shown)
VH: QVQLVESGGGVVQPGRSLRLSCVVSGFTFSNYGMHWVRQGPGRGLEWLALIWYDGSDKYYAESVRGRFTISRDNSKNTVYLQMNSLRAEDTAMYYCTRDRIFDYWGQGTLVTVSS
VL: AIQMTQSPSSLSASVGDRVTITCRASQDIRNDLGWYQHNPGKAPNLLIYAASTLQIGVPSRFRGSGSGTDFTLTISSLQPEDFATYYCLQDFDYPLSFGGGTKVEIR
Take B1: the Internalization (% H4H8087P), HEK293/hGFRa1/hRET/SRE-Luc cells, 37 C worked out at 59%.

B2: H4H8087P (antibody, human IgG4, V domains shown)
VH: QVQLVESGGGVVQPGRSLRLSCAASGFSFSSYGMHWVRQAPGKGLEWVAVMWYDGSNEYYADSVKGRFIISRDNSKSTLYLEMNSLRAEDTALYYCAREDWDEGYYYGMDVWGQGTTVTVSS
VL: DIQMTQSPSSLFASVGDRVTITCRASQDIRYDLGWYQQKPGKAPKRLIYASSILESGVPSRFSGSGSGTEYTLTISTLQSEDFAIYYCLQHNSFPWTFGQGTKVEIK
Molecule B2 had a 293/hGFRα3/hRET SRE-luc % Blocking of 100%; a 293/hGFRα3/hRET/SRE-Luc IC50 of 0.25 nM; an Internalization (% H4H8087P), HEK293/hGFRa1/hRET/SRE-Luc cells, 37 C of 100%; an MCF7/SRE-Luc % Activation of 0%. The molecule also yielded an MCF7/SRE-Luc Avg % Blocking of 100% and an MCF7/SRE-luc Avg. IC50 of 0.25 nM.
